The chains are these.
B1: CE115HA000 Y97D (antibody, human IgG1, kappa, L234A L235A, N297A, name in Kabat numbering)
heavy: QVQLVESGGGVVQPGRSLRLSCAASGFTFSNAWMHWVRQAPGKGLEWVAQIKAKSNNYATYYAESVKGRFTISRDDSKNSLYLQMNSLKTEDTAVYYCRYVHDGAYYGVDAWGQGTTVTVSSASTKGPSVFPLAPSSKSTSGGTAALGCLVKDYFPEPVTVSWNSGALTSGVHTFPAVLQSSGLYSLSSVVTVPSSSLGTQTYICNVNHKPSNTKVDKKVEPKSCDKTHTCPPCPAPEAAGGPSVFLFPPKPKDTLMISRTPEVTCVVVDVSHEDPEVKFNWYVDGVEVHNAKTKPREEQYASTYRVVSVLTVLHQDWLNGKEYKCKVSNKALPAPIEKTISKAKGQPREPQVYTLPPSRCELTKNQVSLSCAVKGFYPSDIAVEWESNGQPENNYKTTPPVLDSDGSFFLVSKLTVDKSRWQQGNVFSCSVMHEALHNHYTQKSLSLSPDYKDDDDK
chain: EPKSSDKTHTCPPCPAPELLGGPSVFLFPPKPKDTLMISRTPEVTCVVVDVSHEDPEVKFNWYVDGVEVHNAKTKPREEQYNSTYRVVSVLTVLHQDWLNGKEYKCKVSNKALPAPIEKTISKAKGQPREPQVCTLPPSRDELTKNQVSLWCLVKGFYPSDIAVEWESNGQPENNYKTTPPVLDSDGSFFLYSKLTVDKSRWQQGNVFSCSVMHEALHNRYTQKSLSLSP
light: DIVMTQSPLSLPVTPGEPASISCRSSQSLVHSNRNTYLHWYQQKPGQAPRLLIYKVSNRFSGVPDRFSGSGSGTDFTLKISRVEAEDVGVYYCGQGTQVPYTFGQGTKLEIKRTVAAPSVFIFPPSDEQLKSGTASVVCLLNNFYPREAKVQWKVDNALQSGNSQESVTEQDSKDSTYSLSSTLTLSKADYEKHKVYACEVTHQGLSSPVTKSFNRGEC
notes: one-arm antibody
B2: CE115HA000 Y100aA (antibody)
heavy: B1 heavy with D103Y, Y107A
Fc: B1 chain
light: B1 light
notes: one-arm antibody
B3: CE115HA000 Y97P (antibody, human IgG1, kappa, L234A L235A, N297A, name in Kabat numbering)
heavy: B1 heavy with D103P
chain: B1 chain
light: B1 light
notes: one-arm antibody
B4: CE115HA000 Y100P (antibody, human IgG1, kappa, L234A L235A, N297A, name in Kabat numbering)
heavy: B1 heavy with D103Y, Y106P
chain: B1 chain
light: B1 light
notes: one-arm antibody
B5: CE115HA000 Y97R (antibody, human IgG1, kappa, L234A L235A, N297A, name in Kabat numbering)
heavy: B1 heavy with D103R
chain: B1 chain
light: B1 light
notes: one-arm antibody
B6: CE115HA000 Y100Q (antibody, human IgG1, kappa, L234A L235A, N297A, name in Kabat numbering)
heavy: B1 heavy with D103Y, Y106Q
chain: B1 chain
light: B1 light
notes: one-arm antibody
B7: CE115HA000 Y100aF (antibody, human IgG1, kappa, L234A L235A, N297A, name in Kabat numbering)
heavy: B1 heavy with D103Y, Y107F
chain: B1 chain
light: B1 light
notes: one-arm antibody
B8: CE115HA000 Y100V (antibody, human IgG1, kappa, L234A L235A, N297A, name in Kabat numbering)
heavy: B1 heavy with D103Y, Y106V
chain: B1 chain
light: B1 light
notes: one-arm antibody
B9: CE115HA000 Y97G (antibody, human IgG1, kappa, L234A L235A, N297A, name in Kabat numbering)
heavy: B1 heavy with D103G
chain: B1 chain
light: B1 light
notes: one-arm antibody
B10: CE115HA000 Y100aS (antibody, human IgG1, kappa, L234A L235A, N297A, name in Kabat numbering)
heavy: B1 heavy with D103Y, Y107S
chain: B1 chain
light: B1 light
notes: one-arm antibody
B11: CE115HA000 Y100G (antibody, human IgG1, kappa, L234A L235A, N297A, name in Kabat numbering)
heavy: B1 heavy with D103Y, Y106G
chain: B1 chain
light: B1 light
notes: one-arm antibody
B12: CE115HA000 Y100aK (antibody, human IgG1, kappa, L234A L235A, N297A, name in Kabat numbering)
heavy: B1 heavy with D103Y, Y107K
chain: B1 chain
light: B1 light
notes: one-arm antibody
B13: CE115HA000 Y100D (antibody, human IgG1, kappa, L234A L235A, N297A, name in Kabat numbering)
heavy: B1 heavy with D103Y, Y106D
chain: B1 chain
light: B1 light
notes: one-arm antibody
B14: CE115HA000 Y100L (antibody, human IgG1, kappa, L234A L235A, N297A, name in Kabat numbering)
heavy: B1 heavy with D103Y, Y106L
chain: B1 chain
light: B1 light
notes: one-arm antibody
B15: CE115HA000 Y100aL (antibody, human IgG1, kappa, L234A L235A, N297A, name in Kabat numbering)
heavy: B1 heavy with D103Y, Y107L
chain: B1 chain
light: B1 light
notes: one-arm antibody
B16: CE115HA000 Y100W (antibody, human IgG1, kappa, L234A L235A, N297A, name in Kabat numbering)
heavy: B1 heavy with D103Y, Y106W
chain: B1 chain
light: B1 light
notes: one-arm antibody
B17: CE115HA000 Y100aG (antibody, human IgG1, kappa, L234A L235A, N297A, name in Kabat numbering)
heavy: B1 heavy with D103Y, Y107G
chain: B1 chain
light: B1 light
notes: one-arm antibody
B18: CE115HA000 Y100aD (antibody, human IgG1, kappa, L234A L235A, N297A, name in Kabat numbering)
heavy: B1 heavy with D103Y, Y107D
chain: B1 chain
light: B1 light
notes: one-arm antibody
B19: CE115HA000 Y100K (antibody, human IgG1, kappa, L234A L235A, N297A, name in Kabat numbering)
heavy: B1 heavy with D103Y, Y106K
chain: B1 chain
light: B1 light
notes: one-arm antibody
B20: CE115HA000 Y100aQ (antibody, human IgG1, kappa, L234A L235A, N297A, name in Kabat numbering)
heavy: B1 heavy with D103Y, Y107Q
chain: B1 chain
light: B1 light
notes: one-arm antibody
B21: CE115HA000 Y100S (antibody, human IgG1, kappa, L234A L235A, N297A, name in Kabat numbering)
heavy: B1 heavy with D103Y, Y106S
chain: B1 chain
light: B1 light
notes: one-arm antibody
B22: CE115HA000 Y100A (antibody)
heavy: B1 heavy with D103Y, Y106A
Fc: B1 chain
light: B1 light
notes: one-arm antibody
B23: CE115HA000 Y97S (antibody, human IgG1, kappa, L234A L235A, N297A, name in Kabat numbering)
heavy: B1 heavy with D103S
chain: B1 chain
light: B1 light
notes: one-arm antibody
B24: dBBDu183H P61V / dBBDu072L (antibody, name in Kabat numbering, V domains shown)
VH: QVQLVESGGGLVQPGRSLRLSCAASGFTFSNAWMHWVRQAPGKGLEWVAQIKDKGNAYAAYYAVSVKGRFTISRDDSKNSIYLQMNSLKTEDTAVYYCHYVHYASASTVLPAFGVDAWGQGTTVTVSS
VL: DIVMTQSPLSLPVTPGEPASISCQASQELVHMNRNTYLHWYQQKPGQAPRLLIYKVSNRFPGVPDRFSGSGSGTDFTLKISRVEAEDVGVYYCAQGTSVPFTFGQGTKLEIK
notes: as m1, one VH change
B25: dBBDu183H A100K / dBBDu072L (antibody, name in Kabat numbering, V domains shown)
VH: B24 VH with V64P, A106K
VL: B24 VL
notes: as m1, one VH change
B26: dBBDu183H A98S / dBBDu072L (antibody, name in Kabat numbering, V domains shown)
VH: B24 VH with V64P, A104S
VL: B24 VL
notes: as m1, one VH change
B27: dBBDu183H A100E / dBBDu072L (antibody, name in Kabat numbering, V domains shown)
VH: B24 VH with V64P, A106E
VL: B24 VL
notes: as m1, one VH change
B28: dBBDu183H A100R / dBBDu072L (antibody, name in Kabat numbering, V domains shown)
VH: B24 VH with V64P, A106R
VL: B24 VL
notes: as m1, one VH change
B29: dBBDu183H A100Q / dBBDu072L (antibody, name in Kabat numbering, V domains shown)
VH: B24 VH with V64P, A106Q
VL: B24 VL
notes: as m1, one VH change
B30: dBBDu183H A100N / dBBDu072L (antibody, name in Kabat numbering, V domains shown)
VH: B24 VH with V64P, A106N
VL: B24 VL
notes: as m1, one VH change
B31: dBBDu183H A100G / dBBDu072L (antibody, name in Kabat numbering, V domains shown)
VH: B24 VH with V64P, A106G
VL: B24 VL
notes: as m1, one VH change
B32: dBBDu183H A98E / dBBDu072L (antibody, name in Kabat numbering, V domains shown)
VH: B24 VH with V64P, A104E
VL: B24 VL
notes: as m1, one VH change

The record followed here is US20210388087A1 (Chugai, published 2021).

Where a chain is given by its changes, count along the chain named. Names may count otherwise.

T2 sequence (chain, as listed by the source limits assumed): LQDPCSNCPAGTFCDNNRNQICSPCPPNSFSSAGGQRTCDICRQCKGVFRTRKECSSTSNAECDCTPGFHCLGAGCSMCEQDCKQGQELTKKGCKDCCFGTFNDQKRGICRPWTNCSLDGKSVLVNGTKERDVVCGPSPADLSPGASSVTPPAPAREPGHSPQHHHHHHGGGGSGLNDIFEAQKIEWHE
T1 sequence (P07766 23-126): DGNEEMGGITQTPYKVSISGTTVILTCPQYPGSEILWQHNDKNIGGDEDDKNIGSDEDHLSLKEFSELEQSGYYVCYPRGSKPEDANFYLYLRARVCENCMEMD

One experiment addresses T1, CD3 epsilon homodimer protein (UniProt P07766 23-126).
T1 construct: also called CD3 (CD3 epsilon)
Description: SPR, CD3 epsilon homodimer on chip, one-arm antibody as analyte.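 Further: surface plasmon resonance at 25 °C with CD3 epsilon homodimer amine-coupled to a CM4 sensor chip, antibody injected as analyte, HBS-EP+ as running buffer.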 Background: In SPR one partner is held on a chip, and binding of the other changes the refractive index at the surface.
With B1, the “KD ratio (KD of CE115HA000/KD of altered form)” value (“KD ratio” below) came out at 65.7.
On to B2, for which the “KD ratio” value was 0.66.
With B3, the “KD ratio” value came out at 12400.
Regarding B4, the “KD ratio” value stood at 1.3.
With B5, the “KD ratio” value was 23200.
In the case of B6, the “KD ratio” value turned out to be 0.77.
Take B7: the “KD ratio” value stood at 0.98.
With B8, the “KD ratio” value amounted to 0.92.
Same read-out and setting: next, B9: 47200.
For the molecule B10, the “KD ratio” value amounted to 0.59.
As for B11, the “KD ratio” value was 0.97.
For B12, the “KD ratio” value amounted to 0.79.
As for B13, the “KD ratio” value came out at 0.63.
Regarding B14, the “KD ratio” value is 0.67.
For B15, the “KD ratio” value was 0.57.
Consider B16, for which the “KD ratio” value is 0.96.
Consider B17, for which the “KD ratio” value stood at 1.01.
In the case of B18, the “KD ratio” value amounted to 1.2.
The same measure, in the same setting: next, B19: 0.93; B20: 0.51; B21: 0.7.
For the molecule B22, the “KD ratio” value came to 0.92.
On to B23, for which the “KD ratio” value is 1180.

The next experiment concerns the target T2, Human CD137 ECD (human).
T2 construct: also called 4-1BB
The experiment can be described thus: SPR, vs parent H183/L072.
Regarding B24, the “fold change of affinity” value stood at 0.6 fold.
For the molecule B25, the “fold change of affinity” value came to 1.1 fold.
The same measure, in the same setting: the result for B26 reads 0.3 fold; that for B27, 0.5 fold.
On the same count and under the same terms, next, B28: 0.5 fold.
Turning to B29, the “fold change of affinity” value is 0.6 fold.
Turning to B30, the “fold change of affinity” value was 0.4 fold.
Turning to B31, the “fold change of affinity” value stood at 0.7 fold.
Still for that read-out and setting: the result for B32 reads 0.3 fold.
